Experimental data reported in PMC3907796.

Target: DAO-6H (recombinant D-amino acid oxidase with C-terminal (His)6) (UniProt P14920)
Sequence (P14920 whole entry): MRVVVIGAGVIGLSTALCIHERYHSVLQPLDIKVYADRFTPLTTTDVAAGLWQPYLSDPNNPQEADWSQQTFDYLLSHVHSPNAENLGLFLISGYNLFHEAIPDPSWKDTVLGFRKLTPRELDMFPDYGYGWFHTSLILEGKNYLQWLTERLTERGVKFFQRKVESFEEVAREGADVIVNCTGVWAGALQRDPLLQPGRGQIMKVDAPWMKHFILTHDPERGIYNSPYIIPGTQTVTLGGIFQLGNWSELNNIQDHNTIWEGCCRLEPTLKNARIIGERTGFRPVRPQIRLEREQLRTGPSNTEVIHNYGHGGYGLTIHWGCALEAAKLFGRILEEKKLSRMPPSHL

B1: G72-6H (recombinant full-length G72 with C-terminal (His)6, refolded) (natural protein)
chain: MLEKLMGADSLQLFRSRYTLGKIYFIGFQRSILLSKSENSLNSIAKETEEGRETVTRKEGWKRRHEDGYLEMAQRHLQRSLCPWVSYLPQPYAELEEVSSHVGKVFMARNYEFLAYEASKDRRQPLERMWTCNYNQQKDQSCNHKEITSTKAE
**Q.** Which initial velocity (V0) of DAO activity (400 nM DAO-6H, 40 mM D-alanine, 25 °C) with 0, 1, 3, 10 μM G72; V0 at 10 μM, fold of DAO alone in parentheses (mol hydrogen peroxide produced/min/g DAO) does the source give for B1 here?
**A.** The initial velocity (V0) of DAO activity (400 nM DAO-6H, 40 mM D-alanine, 25 °C) with 0, 1, 3, 10 μM G72; V0 at 10 μM, fold of DAO alone in parentheses (mol hydrogen peroxide produced/min/g DAO) was 8.06.
